Measurements as given in PMC6651773, “2-Ketogluconate Kinase from Cupriavidus necator H16: Purification, Characterization, and Exploration of Its Substrate Specificity” (Molecules, 2019).

Legend:
Test in all cases: purified protein
Type in all cases: biochemical, Cupriavidus necator
purified protein [1] = substrate: Nc1ncnc2c1ncn2[C@@H]1O[C@H](COP(=O)(O)OP(=O)(O)OP(=O)(O)O)[C@@H](O)[C@H]1O; settings: KG 1.25 mM, Mg2+ 5 mM, Tris-HCl pH 8.0, KCl 50 mM, 25 °C
purified protein [2] = substrate: O=C(O)C(=O)C[C@@H](O)[C@H](O)CO; settings: ATP 1.25 mM, Mg2+ 5 mM, Tris-HCl pH 8.0, KCl 50 mM, 25 °C
purified protein [3] = substrate: O=C(O)C(=O)C[C@H](O)[C@H](O)CO; settings: ATP 1.25 mM, Mg2+ 5 mM, Tris-HCl pH 8.0, KCl 50 mM, 25 °C
purified protein [4] = substrate: O=C(O)C(=O)[C@@H](O)[C@H](O)[C@H](O)CO; settings: ATP 1.25 mM, Mg2+ 5 mM, Tris-HCl pH 8.0, KCl 50 mM, 25 °C, sigmoid, Hill n = 1.4
purified protein [5] = substrate: O=C(O)C(=O)[C@H](O)[C@@H](O)[C@H](O)CO; settings: ATP 1.25 mM, Mg2+ 5 mM, Tris-HCl pH 8.0, KCl 50 mM, 25 °C

B1: KGUKCnec (2-ketogluconate kinase from C. necator H16) (Cupriavidus necator H16) (protein)
chain: MSTDLDVVTLGEAMLMLVAGEAGPLEGAQTFHKRTAGAETNVAIGLSRLGLKVGWASRLGDDSMARYLLGEMQREGVDCSQVVCEPGERTGFQFKGRVDDGSDPPVEYHRRGSAASRMNPEHLDGRWLRRSRHLHVTGVFPALAAGTQAATRQAIATMQAAGRTISFDPNLRPTLWASPELMRETLNDLAQQCDWVLPGIEEGRFLTGHAEPERIAAFYRARGARLVVVKLGADGAYFDGEAGTGHVEAFSVEHVVDTVGAGDGFAVGVISALLEGRPVRDAVRRGAWIGARAVQVRGDTEGLPTHAQLAAASL
notes: full-length ORF (PCR primers kguK-NdeI 5' […] 3' / kguK-BamHI 5' […] 3'
- Km (purified protein [1]): 73 ± 2 µM
- Vmax (purified protein [1]): 10.2 µmol/min/mg
- kcat (purified protein [1]): 5.71 ± 0.05 s⁻¹
- kcat/Km (purified protein [1]): 78200 ± 2500 M⁻¹ s⁻¹
- Km (purified protein [2]): 25000 ± 4000 µM
- Vmax (purified protein [2]): 3.7 µmol/min/mg
- kcat (purified protein [2]): 2.1 ± 0.2 s⁻¹
- kcat/Km (purified protein [2]): 83 ± 20 M⁻¹ s⁻¹
- Km (purified protein [3]): 1400 ± 200 µM
- Vmax (purified protein [3]): 18.2 µmol/min/mg
- kcat (purified protein [3]): 10.2 ± 0.5 s⁻¹
- kcat/Km (purified protein [3]): 7370 ± 970 M⁻¹ s⁻¹
- K0.5 (purified protein [4]): 0.35 ± 0.03 mM
- Vmax (purified protein [4]): 10.4 µmol/min/mg
- kcat (purified protein [4]): 5.8 ± 0.2 s⁻¹
- kcat/Km (purified protein [4]): 16800 ± 1300 M⁻¹ s⁻¹
- Km (purified protein [5]): 4000 ± 1000 µM
- Vmax (purified protein [5]): 1.9 µmol/min/mg
- kcat (purified protein [5]): 1.1 ± 0.1 s⁻¹
- kcat/Km (purified protein [5]): 246 ± 70 M⁻¹ s⁻¹
